Patent publication US20130263331A1

Tests used:
[1] = target: putative receptor(s) on brush border membrane vesicles (BBMV) prepared from midguts of third instars of the western corn rootworm (Diabrotica virgifera virgifera LeConte) (Diabrotica virgifera virgifera); assay: Homologous competition: unlabeled Cry3Aa (0-2500 nM) against 5 nM 125I-Cry3Aa on 0.1 mg/ml BBMV; value at about 2500 nM competitor
[2] = target: putative receptor(s) on brush border membrane vesicles (BBMV) prepared from midguts of third instars of the western corn rootworm (Diabrotica virgifera virgifera LeConte) (Diabrotica virgifera virgifera)

Substance	percent of bound 125I-Cry3Aa displaced [1] [%]	Kd [2] [nM]	binding site concentration Bmax (pmole/mg BBMV) [2]
Cry3Aa trypsin core (from UniProt P0A379 159-644)	60	24	22
Full-length Cry6Aa1 (from UniProt Q45757 1-475)		10.1	0.66
